From the nanobody polyreactivity screen of Harvey et al. (2022)

Test: yeast display, Sf9 membrane polyspecificity reagent, FACS + sequencing; frameworks hold sequencing errors
Outline: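 In a synthetic yeast display library (Saccharomyces cerevisiae BJ5465), nanobody expression was induced with galactose for 36–48 hours. FACS gates were set low and high (top ~1%) using anti-HA fluorescence for expression and streptavidin fluorescence for binding of the Sf9 membrane reagent. Each polyreactivity label is drawn from the gate of origin.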

Row | Sequence | polyreactivity (PSR sort gate)
1 | QFQLVESGGGLVQAGGSLRLSCAASGRIFVRYAMGLYRKAPGKERELVAAISKSGGSTYYADSVKGRFTISRDNAKNTVYLQMNSLKPEDTAVYYCNALVRRRPGYIRYDYWGQGTQVTVSS | low polyreactivity
2 | QVQLVESGGGLVQAGGSLRLSCAASGSTFFLYAMGWYRQAPGKERELVAAISSGGSTNYADSVKGRFTISRDNAKNTVYLQMNSLKPEDTAVYYCAADAVRSHDYWGQGTQVTVSS | low polyreactivity
3 | QDQVVESGGGLVQAGGSLRLSCAASGRIFFAYAMGLYRQAAGTERELVAAITSSGNTYYADSVKGRFTISRDNAKNTVFLQINSLKPEDTAVYYCATGYWELRYDYWGQGTQLTVSS | low polyreactivity
4 | QVQLVESGGGLVQAGGSLRLICAASGSTFFANAMGWYRPAPGKERELVAVITYSGGSTYYADSVKGRFTISRYNAKNTVYLQMNSLKPEDTAVDYCAAKSYFRPYSYSYSYWGQGTQVTVSS | high polyreactivity
5 | QVQLVESGGGLVQAGGSLRLSCAASGSIFDYYAMGWYRQAPGKETEFVADICSSGTSTYYADSVKGRFTISRDNAKNTVYLQMNSLKPEDTAVYYCNSELDSWLSYVVAYFARFDYWGQGTQVTVSS | high polyreactivity
6 | QVQLVESGGGLVQAGGSLRLSCAASGGIFLVYAMGWYRQAPGKERELVAAITPGGSTYYADSVKGRFTISRDNAKNTVYLQMNSLKPEDTAVYYCAKALYRREYSSGGYYRFDYWGQGTQVTVSS | high polyreactivity
7 | QVQLVESGAGLVQAGGSLRLSCAASGRTLTYNAMGWYRQAPGKEREFVAAISVGGGSTYADSVKGRFTISRDNAKNTVYLQMNRLKPEDTAVYYCAAAYTKLYYYWGQGTQVTVSS | low polyreactivity
8 | QVQLVESGGGLVQAGGSLRLSCAASGRTFTVYAMGWYRLAPGKERELVAAISSGGITNYADSVKGRFTISRDNAKNTVYLQMNSLKPEDTAVYYCNTKSGKARYEFGYWGQGTQVTLSS | low polyreactivity
9 | QVQLVESGGAVVHAGGSLRLSCAASGFTFRYYDKGWYRQAHGKEMELVAAISSGGSTDYADSVKGRFTISRDNAKNTVYLQMNCLKPEDNAVYYCAADWWVVYTYDYWGPGTQVTVSS | low polyreactivity
10 | QVQLVESGGGLVHAGGSLRLSCAASGFTFYYYAMGWYRPAPGKERELVAAISSRGGNSYYADSVKGRFTISRDNAKNTVYLQMNSLKPEDTAVYYCASVPLKYDYWGQGTQVTVSS | high polyreactivity
11 | QVQLVESGGGLVQAGGSLRLSCAASGRIVRPNAMGWYRQAPGKERELVAAIRSTVGSTFYADSVKGRFTISRDNAKNTVYLEMISLKPEDTAVYDCAAGTSRQFFYWGQGTQVTVAS | low polyreactivity
12 | QVQLVESGGGLVQAGGRLRLSCAASGGLLDIYVMGWYRQAPGKERELVAAITTRGGSTFYADSVKGRFTISRDNAKNTVYLQMNSLIPEDTAVYYCNKRLLVSRSSAQAYGYWGQGTQVTVSS | high polyreactivity
13 | QVQLLDSGGGLVQAGGSLSLSCAASGSSFRYYAMGWYRPAPRKEREFVADISWSGSSTYYADSVKGRFTISRDNSKITVYLLMNSLTPEDTAVYYCAARYRYRSSSYDYWGQGTQVTVSS | high polyreactivity
14 | QVQLVESGGGLVQAGGSLRLSCAASGFTFDKYAMGWYRQAPGKESELVAAISRGGGTKYADSVKGRFTISRDNAKNTVYLQMNSLKPEDTAVYYCVAKFRPDLSRGAYEYWGQGTQVTVSS | high polyreactivity
15 | QVQRVESGGGLVQAGGRLRLTCAASGSTFYVNAMVWYRQAPGKERELVAGISFSDGSTYYADSVKGRFTISRDNAKNTVYLQMNSLKPEDTAVYYCATVGAFDIYYGYGYWGQGTQVTVSS | low polyreactivity
16 | QVKLVESGGGLVQAGGSLRLSCAASGSIFPRYAMGWYRQAPGKERELVAAITGSGSSTYYADSVKGRFTISRDNAKNTVYFQMNSLKPEDTAVYYCAARKARPPFPHPFDYYWGQGTQVTVSS | low polyreactivity
17 | QVQLVESGGGLVQAGGSLRLSCAASGRTFSYYAMGWYRQAPGKERELVAAISRAGRTNYADSVKGRFTISRDNAKNTVYLQMHSLKPEDTAVYYCAADLAYGRPFVSYRTRDWGQGTQVTVSS | high polyreactivity
18 | QVQLVESGGGLVQAGGSLRLSCAASGSIITRNAMGWYRQAPGKERELVATIRYRGGSTYYADSVKGRFTISRDNAKNTVFLQMNSLKPEDTAVYYCAARRSHPPDPRFRYGYWGQGTQVTVSS | high polyreactivity
19 | QVQLVESGGGLVQAGGSLRLSCAASGSTFVTNDMGWYRQAPGKESELVAAISSGTSTNYADSVKGRFTISRDNAKNTVYLQMNSLKPEDTAVYYCAADSLKRYDYWGQGTQVTVSS | low polyreactivity
20 | QVQLVESGGGLVQAGGSLRLSCAASGYIFERYAMGWYRPAPGKERELVAAISSGGGRTYYADSVKGRFTISRDNAKNPVYLQMNSLQPEDTAVYYCAADHWWISSYWGQGTQVTVSS | high polyreactivity
21 | QVQLVESGGGLVQAGGSLRLSCAASGRIFRYNAMGWYRQAPGKERELVAAISQSGGSTYYADSVKGRFTISRDNAMNTVYLQMNSLKPEDTAVYYCGADNYFLGDEDYWGQGTQGTVSS | high polyreactivity

Row | Sequence | polyreactivity (PSR sort gate)
22 | QVQLVESGGGLVQAGGSLRLSCAASGRIFRYNAMGWYRQAPGKERELVAAITNGGSTNYADSVKGRFTISRDNAKNTVYLQMNSLKPEDTAVYYCAAEGNGYLVSTWWVRYEYWGQGTQVTVSS | low polyreactivity
23 | QVQLVESGGGLVQAGGSLRLSCAASGRTFWWYAMGWYRQEPGKERELVAAITWSGGSTYYADSVKGRFTISRDNAKNTVYLQMNSLKPEDTAVYYCAAYVHNKYDYWGQGTQVTVSS | low polyreactivity
24 | QVQLVESGGGLVQAGGSLRLSCAASGRIFDANAMGWYRQAPGKERELVAANSRRGGRTYYADSVKGRFTISRDNAKNTVYLQMNSLKPEDTAVYYCARVPTRAEDVAGWTGMDYWGQGTQVTVSS | high polyreactivity
25 | QVQLVESGGGLVQAGGSLRLSCAASGSTFTPYAMGWYRQAPGKERELVAAINGGGTRTYYADSVKGRFTISRDNAKNTVYLQMNSLKPEDTAVYYCAARTSTSRSYPYNYWGQGTQVTVSS | high polyreactivity
26 | QVQLVESGGGLVQAGGSLRLICAGSGSTFPTYAMGWYRQAPGKERELVAAITSGSGTNTYYADSVKGRFTISRDNAKNTVYLQMNSLKPEDTAVYYCAASGGKNGMNYWGQGTQVTVSS | high polyreactivity
27 | QVQLVESGGGLVQAGGSLRLSCAPSGSIFPYYAMGWYRQAPGKERELVAAISGSDGTTYYADSVKGRFTISRDNAKNTVYLQMNSLKPEDTAVYYCAVELPELYYYFAYEYWGQGTQVTVSS | high polyreactivity
28 | QVQLVESGGGLVQAGGSLRLSCAASGFTSSQYAMGWYRQAPGKERELVAAITSSGSSTYYADSVKGRFTISRDNAKNTVYLQMNSLKPEDTAVYYCNTDAYHRYPGSVWYYYWGQGTQVTVSS | high polyreactivity
29 | QVQLVESGGGLVQAGGSLLLSCAASGSIFRVYAMGGYRQAPGKESELVAAISVSGSSTYYADSVKGRFTISRDNAKNTVYFQMNCLKREDTAVYYCATKQRRGYWGYITAYARYYWGQGTQVSVSS | high polyreactivity
30 | QVQLVESGGGVVQAGGSLRLSCAASGFIFPLYTMGWSRQAPGKERELVAAITGSGGSTYYADSVKGRFTISRDNAKNTVYLQMNSLKPEDTAVYYCAKDYTYGMDWGQGTQVTVSS | low polyreactivity
31 | QVQIVESGGGLVQAGGSLRLSCAASGRIFDSYAMGWYRQAPGKERELVAAISQNSGSTYYADSVKGRFTISRDNEKNTVYLQMNSLKPEDTAVYYCAATRKTKRFGYWGQGTQVTVSS | high polyreactivity
32 | QVQLEESGGGLVQAGGSHRLSCAASGSIFGGNAMGWYRQAPGKERELVAAITQSGGRTYYADSVKGRCTISRDTAKNTVYLQMNSLKPEDTAVYYCNRVYKSQTTDSYPLSYYYWGQGTQVTVSS | high polyreactivity
33 | QVQLVESGGGLVQAGGSLRLSCAASGLTFAWNDMGWYRQAPGKERELVAAISIIGTTYYADSVKGRFTISRDNAKNTVYLQMNSLKREDTAVYYCAKTGFLGLRQYGYWGQGTQVTVSS | high polyreactivity
34 | QVQIVESGGGLVQAGGSLRLSCAASGITFRRNAMGWYRQAPGKERELVAVITSVGTTYYADSVKGRFTISRDNAKNTVYLQMNSLKPEDTAVYYCAARFYWGQGTQVTVSS | high polyreactivity
35 | KVQHVESGGGLVQAGGSLRLSSAASGRISWSYAMGWYRQAPGKESELVAAITSGGTTNYAYSVKGRFTISRDNAKYTVYLQMNSLKPEDTAVYYCARDSYQLGLIRDPLEYDFWGKGTQVTVSS | low polyreactivity
36 | QVQLVESGGGLGQAGGSLRLSCAASGSIFITYAMGWYRQAPGKERELVAAIRRGGRTNYADSVKGRFTISRDNAKNTVYLQMNSLKPEDTAVYYCAAEFRTGWPYYPDYAYDYWGQGSQVTVSS | low polyreactivity
37 | QVQLVESGGGLVQAGGSLRLSCVASGRIFLTYAMGWYRQAPGKERELVAAISYSGASTYYADSVKGRFTISRDNAKNTVYLQMNSLKPEDTSVYYCATERVGTPRMNYWGQGTQVTVSS | high polyreactivity
38 | QVQLVESGGGLVQAGGSLRLSCAASGSTFLDYDMGWYRQAPGKERELVATINSVGSTYYADSVKGRFTISRDNAKNTVYLQMNSLKPEDTAVYYCAARQEPGWYPDVWWEYDYWGQGTQVTVSS | low polyreactivity
39 | QVQLVESGGGLVQAGGSLRLSCAASGSTFSDYAMGWYRQAPGKERELVAAISGGGTTDYADSVKGRFTISRDNAKNTVYLQMNSLKPEDTAVYYCNKPVEGSFLPYSYLRFDYWGQGTQVTVSS | low polyreactivity
40 | QVQLVESGGGLVQAGGSLRLSCAASGRIFNRYTMGWYRQAPGKERELGAAISKSGGSTYYADSVKGRFTISRDNAKNTVYVQMNSLKPEDTAVYDCAAPPRLYRWHGGDYWGQGTQVTVSS | high polyreactivity
41 | QVQLVESGGGLVQAGGSLRLSCAASGSTLKYYTMGWYRQAPGKERELVAAISWSGGRTYYADSVKGRFTISRDNAKNTVYLQMNSLKPEDTAVYYCNARRTFPRYDRKYESWGQGTQVTVSS | high polyreactivity
